US20240398963A1 (priority 2021, published 2024)

Type: physicochemical
Conditions: 10 mM PBS buffer (pH=7.4), 37° C., 100 rpm shaker; free drug by HPLC, average release per day
Procedure: The drug release and stability experiments were run using the test compounds. About 2.5±1.0 mg/mL (with regard to conjugate) solution of each test compound was prepared with 10 mM PBS buffer (pH=7.4) in Millipore Amicon® Ultra-0.5 ml 30 k Ultrafiltration centrifuge tube. The solution was kept swelling for 1 h at room temperature and then placed in a shaker at 100 rpm, 37° C. for continuous experiment. At the same time point of each day, samples were centrifuged at 10000 rpm for 1 h. The aliquot was transferred to HPLC vial for analysis. An 0.4 mL of 10 mM PBS buffer was added into the centrifuge tube and continue the experiment.
For the HPLC analysis at each time point, the peak areas of all relevant peaks from the chromatograms were retrieved and the concentration of free drug was calculated. Average release of free drug was calculated based on the sum of free drug and numbers of experiment days. The computing equation is as below.
The sample degradation rate was calculated based on the concentration and degree of substitution (NMR) for conjugated drug with regard to the initial starting point of the experiment (at t=0). The computing equation is as below.

Question: Which Release rate does the source give for “Conjugate of HA and 5-aminopentyl (2-((8S,9S,10R,11S,13S,14S,17R)-11,17-dihydroxy-10,13-dimethyl-3-oxo-2,3,6,7,8,9,10,11,12,13,14,15,16,17-tetradecahydro-1H-cyclopenta[a]phenanthren-17-yl)-2-oxoethyl) carbonate [Example 90]” here?
Answer: 4.56 %/day

Question: For “Conjugate of HA and 5-aminopentyl (2-((8S,9S,10R,11S,13S,14S,17R)-11,17-dihydroxy-10,13-dimethyl-3-oxo-6,7,8,9,10,11,12,13,14,15,16,17-dodecahydro-3H-cyclopenta[a]phenanthren-17-yl)-2-oxoethyl) carbonate [Example 85]”, which Release rate is on record?
Answer: 7.65 %/day

Question: For “Conjugate of HA and 5-aminopentyl (2-((8S,9S,10R,13S,14S,17R)-17-hydroxy-10,13-dimethyl-3,11-dioxo-2,3,6,7,8,9,10,11,12,13,14,15,16,17-tetradecahydro-1H-cyclopenta[a]phenanthren-17-yl)-2-oxoethyl) carbonate [Example 91]”, which Release rate is on record?
Answer: 11.66 %/day

Question: For “Conjugate of HA and 5-aminopentyl (2-((8S,9S,10R,13S,14S,17R)-17-hydroxy-10,13-dimethyl-3,11-dioxo-6,7,8,9,10,11,12,13,14,15,16,17-dodecahydro-3H-cyclopenta[a]phenanthren-17-yl)-2-oxoethyl) carbonate [Example 89]”, which Release rate is on record?
Answer: 8.12 %/day
